Reference: article PMC4790104 (Analytical chemistry, 2016)
Each block holds one binder with its values, some of them ahead of it.

Experiments:
Experiment in all cases: native MS
Ski2 = molecular target: T1, Ski2 (S. cerevisiae (endogenous in budding …, UniProt P35207 1-1287))
T1 sequence (looked up): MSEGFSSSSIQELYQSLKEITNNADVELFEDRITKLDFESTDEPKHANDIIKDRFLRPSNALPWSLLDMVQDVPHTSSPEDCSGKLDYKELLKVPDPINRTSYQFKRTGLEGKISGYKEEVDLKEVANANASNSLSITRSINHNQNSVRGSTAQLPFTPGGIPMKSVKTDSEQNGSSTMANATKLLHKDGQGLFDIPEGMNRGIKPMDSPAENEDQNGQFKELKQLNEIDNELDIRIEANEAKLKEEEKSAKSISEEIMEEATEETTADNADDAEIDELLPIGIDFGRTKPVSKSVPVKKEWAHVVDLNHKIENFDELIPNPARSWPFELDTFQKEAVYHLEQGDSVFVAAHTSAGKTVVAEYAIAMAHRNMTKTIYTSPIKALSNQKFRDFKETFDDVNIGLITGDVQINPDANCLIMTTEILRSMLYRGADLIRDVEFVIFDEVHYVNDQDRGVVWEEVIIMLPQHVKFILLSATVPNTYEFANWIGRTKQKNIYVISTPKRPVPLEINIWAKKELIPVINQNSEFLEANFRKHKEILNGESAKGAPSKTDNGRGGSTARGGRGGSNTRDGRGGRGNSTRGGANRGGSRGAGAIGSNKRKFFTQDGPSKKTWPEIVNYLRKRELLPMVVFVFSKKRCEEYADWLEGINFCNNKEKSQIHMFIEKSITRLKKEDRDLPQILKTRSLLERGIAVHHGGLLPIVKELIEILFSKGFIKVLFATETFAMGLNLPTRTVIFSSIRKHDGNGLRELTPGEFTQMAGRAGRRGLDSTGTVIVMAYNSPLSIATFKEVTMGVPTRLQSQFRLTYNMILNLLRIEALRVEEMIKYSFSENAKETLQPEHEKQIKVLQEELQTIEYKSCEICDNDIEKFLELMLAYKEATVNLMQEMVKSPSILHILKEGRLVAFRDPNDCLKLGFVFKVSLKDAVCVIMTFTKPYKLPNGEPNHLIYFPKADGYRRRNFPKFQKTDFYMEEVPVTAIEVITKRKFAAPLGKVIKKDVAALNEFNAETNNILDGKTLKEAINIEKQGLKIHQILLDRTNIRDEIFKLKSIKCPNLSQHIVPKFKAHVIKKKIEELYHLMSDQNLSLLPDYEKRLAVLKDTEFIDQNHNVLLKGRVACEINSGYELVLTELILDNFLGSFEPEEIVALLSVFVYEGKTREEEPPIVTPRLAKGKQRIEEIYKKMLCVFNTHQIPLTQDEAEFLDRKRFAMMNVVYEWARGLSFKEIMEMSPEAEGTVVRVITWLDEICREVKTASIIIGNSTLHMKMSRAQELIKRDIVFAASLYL

Nup84-HRV-SpA = Nup84-HRV-SpA (S. cerevisiae (endogenous in budding …, UniProt P52891 1-726))
Chain of Nup84-HRV-SpA (S. cerevisiae (P52891 whole entry): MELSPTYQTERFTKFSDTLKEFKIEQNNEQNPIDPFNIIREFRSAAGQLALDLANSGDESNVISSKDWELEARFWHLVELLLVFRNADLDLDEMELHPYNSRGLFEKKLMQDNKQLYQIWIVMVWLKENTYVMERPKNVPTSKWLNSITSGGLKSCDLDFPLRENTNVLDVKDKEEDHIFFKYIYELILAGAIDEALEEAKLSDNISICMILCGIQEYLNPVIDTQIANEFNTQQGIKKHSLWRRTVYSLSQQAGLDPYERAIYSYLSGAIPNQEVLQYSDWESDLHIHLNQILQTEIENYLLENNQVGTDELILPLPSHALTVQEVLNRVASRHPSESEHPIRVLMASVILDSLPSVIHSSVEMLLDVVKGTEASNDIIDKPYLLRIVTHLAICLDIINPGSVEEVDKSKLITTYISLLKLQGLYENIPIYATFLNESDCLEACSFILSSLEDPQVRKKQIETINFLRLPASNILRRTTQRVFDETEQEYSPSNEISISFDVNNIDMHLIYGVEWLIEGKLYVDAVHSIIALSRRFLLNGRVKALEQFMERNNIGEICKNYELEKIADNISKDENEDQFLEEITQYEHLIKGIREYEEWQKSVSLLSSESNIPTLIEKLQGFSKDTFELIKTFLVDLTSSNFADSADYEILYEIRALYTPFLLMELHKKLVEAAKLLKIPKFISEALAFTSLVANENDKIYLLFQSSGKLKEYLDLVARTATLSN

Psf2-SpA = molecular target: T2, Psf2-SpA (S. cerevisiae (endogenous in budding …, UniProt P40359 1-213))
T2 sequence (looked up): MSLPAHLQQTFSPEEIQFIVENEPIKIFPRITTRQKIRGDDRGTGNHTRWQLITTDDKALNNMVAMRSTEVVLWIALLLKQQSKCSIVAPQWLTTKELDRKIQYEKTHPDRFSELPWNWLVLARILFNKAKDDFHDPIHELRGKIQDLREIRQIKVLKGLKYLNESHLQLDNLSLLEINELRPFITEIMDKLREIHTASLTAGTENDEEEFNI

B1: Ski3 (natural protein, UniProt P17883 1-1432, looked up)
chain: MSDIKQLLKEAKQELTNRDYEETIEISEKVLKLDPDNYFAHIFLGKALSSLPASNNVSSNRNLERATNHYVSAAKLVPDNLLAWKGLFLLFRTTEVVPDILSYDEYFDLCGQYADALLKQEQSQVELINDIKLLKKTHPDCQKAFYQHLKPGSLMAETIGRHLSTPQDALLNLIKILSNIETTEIGKTLSQNRLKLKASDPDYQIKLNSFSWEIIKNSEIDQLYNQLVNILADDQKRSEIENQWLEYRIKVLKSMPLDVKKDFFTKVKEMVEDMVLVNHQSLLAWQKYFEWTDYEDLDNMDAPLIIKYFKKFPKDPLAMILYSWLSSKLSKYDIKSLESANKPPEGHKKTEKETDIKDVDETNEDEVKDRVEDEVKDRVEDEVKDQDEEAKEDEEEDLDDIEIGLLEEEVVTVLTENIVKCKNNILAHRILCQYYLLTKEYEAALPYIKNGISLIAYNIKDLGVHLPLTKREFSLDLATVYTYVDAPKDHNAALKLYDNILSGDFSNIQAKMGKGIIFIERKNWKDAMTLLTQVHEQSPNNLEVLSELSWSKAHMGYMDEALAGLDTVIKGIKGMDLRSIDFRALNLWRQAKVYIMKHASINDAKQENVKCAFKLLIQSIKILDTFAPGFSTLGDIYCHYYKDHLRAFKCYFKAFDLDAGDYTAAKYITETYASKPNWQAASSIASRLIKGEKAKAELRSNNWPFRVVGIAHLEKQEESDSIEWFQSALRVDPNDVESWVGLGQAYHACGRIEASIKVFDKAIQLRPSHTFAQYFKAISLCDVGEYLESLDILEKVCQEAATEESFQIGLVEVLMRCSLDLYSQGFLLKSVSIAKDTIERIKIIISELKCENQQVWIYLSQVLRLFIWIESKVDTLPVESLVSIFENSQFSGSEEIDSVDNIKIDTLLDSTTDDNVSIACKFLILASKYSVSDQKFTDIAGTVRASYWYNIGISELTAFITLKEPQYRDAAIFAFKKSIQLQSNTSETWIGLGIATMDINFRVSQHCFIKATALEPKATNTWFNLAMLGLKKKDTEFAQQVLNKLQSLAPQDSSPWLGMALILEEQGDIIGSSKLFAHSFILSNGRSKAAQFMYAKNVLENHINNGDDERDIETVEKLTTASIALEQFFKKSPDSQFALQCALLTLERLHHYENANELANRLIGILEKKFEKTQDERELFNFAIIKGQFARIHLGLGNFELSIENADLSQGIISESSDEKSMKTKISNHICLGLSYFFLNDFDQTLNQFQELLSISKDSKHLVVLIAKVLYDVGESDTKEIALQELTEYIATSGADLLVTLTIAAMSILDDKREDLSIILEELKALPLSKQIIDKHKDAPYLIEEITKRLYRNDTGKQVWQRSAYFFPNNLKVWERLDKNIQRRIASNGQNKVTAEEMSKLYCESKNLRSIQRGMFLCPWNVTAVKALNECF
- stoichiometry N (Ski2): 1

B2: Sec13 (natural protein, UniProt Q04491 1-297, looked up)
chain: MVVIANAHNELIHDAVLDYYGKRLATCSSDKTIKIFEVEGETHKLIDTLTGHEGPVWRVDWAHPKFGTILASCSYDGKVLIWKEENGRWSQIAVHAVHSASVNSVQWAPHEYGPLLLVASSDGKVSVVEFKENGTTSPIIIDAHAIGVNSASWAPATIEEDGEHNGTKESRKFVTGGADNLVKIWKYNSDAQTYVLESTLEGHSDWVRDVAWSPTVLLRSYLASVSQDRTCIIWTQDNEQGPWKKTLLKEEKFPDVLWRASWSLSGNVLALSGGDNKVTLWKENLEGKWEPAGEVHQ
- stoichiometry N (Nup84-HRV-SpA): 1

B3: Psf3 (natural protein, UniProt Q12146 1-194, looked up)
chain: MGYYDIDDVLADGTEFPCKFQYDIPGLGYLENNPGRPITKNTKLSLPLWLARILAIVGGDEALVDEEPVPFVELLPPDMFSTKVMNAIKTDPVALDLHSINSHFFSLAIKWIMLFSEKELANVVSELLLQRAQELNHHASSLSIDLNADSTGKNSANTNIATSTFLLKLEEMEKEIYKKSHESYKDTKRWMFKK
- stoichiometry N (Psf2-SpA): 1

B6: Sld5 (natural protein, UniProt Q03406 1-294, looked up)
chain: MDINIDDILAELDKETTAVDSTKITQGSSSTTHRDANTIVGSSLDLNDKTQIYVSPQQDFSDLMKSWKNERCSPELLPYPHQLMKRLLNRISMQSQLIENISMGFLDMQNASNANPPMPNESKLPLLCMETELERLKFVIRSYIRCRLSKIDKFSLYLRQLNEDENSLISLTDLLSKDEIKYHDTHSLIWLKLVNDSILKYMPEELQAINDTEGSVNMIDEPDWNKFVFIHVNGPPDGKWNEDPLLQENEFGKPCYTVTIPDLKEEVELTIGSIYVMRYEVIRDLLRDDKVALI
- stoichiometry N (Psf2-SpA): 1

More lines, now with the values ahead:

- stoichiometry N (Nup84-HRV-SpA): 1
B4: Seh1 (natural protein, UniProt P53011 1-349, looked up)
chain: MQPFDSGHDDLVHDVVYDFYGRHVATCSSDQHIKVFKLDKDTSNWELSDSWRAHDSSIVAIDWASPEYGRIIASASYDKTVKLWEEDPDQEECSGRRWNKLCTLNDSKGSLYSVKFAPAHLGLKLACLGNDGILRLYDALEPSDLRSWTLTSEMKVLSIPPANHLQSDFCLSWCPSRFSPEKLAVSALEQAIIYQRGKDGKLHVAAKLPGHKSLIRSISWAPSIGRWYQLIATGCKDGRIRIFKITEKLSPLASEESLTNSNMFDNSADVDMDAQGRSDSNTEEKAELQSNLQVELLSEHDDHNGEVWSVSWNLTGTILSSAGDDGKVRLWKATYSNEFKCMSVITAQQ

- stoichiometry N (Psf2-SpA): 1
B5: Psf1 (natural protein, UniProt Q12488 1-208, looked up)
chain: MYGDLGNKLVLEAKRTKQLYARSNQDVNLPMYHEDIIRNILKEVSNLRKNTEYLKEQQQLGMLDDKVAKCQYFVTLLCMERNKRCLLAYQRLRTDILDSMAWNNNGLDLMSSITFSQQDTNNLSHQEQEYLKEYCDLITDLKSGDLVDIDLSGSLVPPSDVFIDVRVLKDAGEIQTEYGVFNLIKDSQFFVRQSDVERLIQQGYLQKI
